Consider 30 sequences from the nanobody polyreactivity screen of Harvey et al. (2022).

The nature of the data set: yeast display, Sf9 membrane polyspecificity reagent, FACS + sequencing; frameworks hold sequencing errors. The essentials:
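Using colony PCR, genes from sorted yeast display clones were amplified, then sequenced on MiSeq at 2 × 250 and filtered by CDR length. The clones had been stained with 10% biotinylated, detergent-solubilized Sf9 membrane reagent for 1 hour at 4 °C and sorted by FACS into low and high (top ~1%) gates on anti-HA and streptavidin fluorescence. Polyreactivity labels come from the gate of origin.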
On to “QVQLVESGGGLVQAGGSLRLSCAASGRTFYFNTMGWYRQAPGKERELVATISWSGGRTYYADSVKGRFTISRDNAKNTVYLQMNSLKPEDTAVYYCAAVRYRGFDYWGQGTQVTVSS”, for which the “polyreactivity (PSR sort gate)” value is given as “high polyreactivity”.

“QVQLVESGGGLVQAGGSLRLSCAASGRTFYFYAMGWYRHAPGKERELVAAITSGGGRTNYADSVKGRFTISRDNAKNTVYLQMNSLKPEDTSVYYCAAVLYGQYTGKYYFWGQGTQVTVSS”: the “polyreactivity (PSR sort gate)” value is on record as “high polyreactivity”. In the case of “QVQLVESGGGLVQAGGSLRLSCAASGRTFYFYAMGWYRQAPGKERELVAAITFSGGSTYYADSVKGRFTISRDNAKNTVYLQMNSLKPEDTAVYYCIAVSTYKREYWGQGTQVTVSS”, the “polyreactivity (PSR sort gate)” value is on record as “low polyreactivity”. Take “QVQLVESGGGLVQAGGSLRLSCAASGRTFYFYAMGWYRQAPGKERELVAAITWSDGTTYYADSVKGRFTISRDNAKNTVYLHMNSLKPEDTAVYYCAARVRIYGRRYNYWGQGTQVTVSS”: the “polyreactivity (PSR sort gate)” value is reported as “high polyreactivity”. For the sequence “QVQLVESGGGLVQAGGSLRLSCAASGRTFYFYAMGWYRQAPGKERELVASITSSGGNTYYADSVKGRVTISRDNAKNTVYLQMNSLKPEDTAVYYCAARWFPWLQWKRYDYWGQGTQVTVSS”, the “polyreactivity (PSR sort gate)” value is given as “low polyreactivity”. “QVQLVESGGGLVQAGGSLRLSCAASGRTFYFYAMGWYRQAPGKEWELVAAISWSGGRTYYADSVKGRFTISRDNAKNTVYLQMNSLNPEDTAVYYCAAEYRWSVGYWRYGLDDYWGQGTQVTVSS”: the “polyreactivity (PSR sort gate)” value is “high polyreactivity”. On to “QVQLVESGGGLVQAGGSLRLSCAASGRTFYFYTKGWYRQAPGKERELVATAITSGGSTNYADSVKGRFTISRDNAKNTVYLQMNSLKPEDTAVYYCNARYTYLWSSLYYWGQGTQVTVSS”, for which the “polyreactivity (PSR sort gate)” value is “low polyreactivity”. Consider “QVQLVESGGGLVQAGGSLRLSCAASGRTFYFYTLGWYRQAPGKERELVAAISWSGGSTYSADSVKGRFTISRDNAKNTVYLQLNSLKPEDTAVYYCAASSPWEQSNDQFYYWGQGTQVTVSS”, for which the “polyreactivity (PSR sort gate)” value is on record as “low polyreactivity”. Regarding “QVQLVESGGGLVQAGGSLRLSCAASGRTFYGNAMGWYRQAPGTEREFVAAITRSGGTTYYADSVKGRFTISRDNAKNTVYLQMNSLKPEDTAVYYCARSYGWYRWAGYDYWGQGTQVTVSS”, the “polyreactivity (PSR sort gate)” value is given as “high polyreactivity”. Under “QVQLVESGGGLVQAGGSLRLSCAASGRTFYGNVMGWYRQAPGKEREWVAVISWSSGSTSYADSVKGRFTISRDNAKNTVYLQMNSLKPEDTAVYYCAGTTRPPRYRQYDSDYYYWGQGTQVTVSS” stands “low polyreactivity”; under “QVQLVESGGGLVQAGGSLRLSCAASGRTFYGYAMGWSRQAPGKERELVAAISVSGGGTYYADSVKGRFTISRDNAKYTVYLQMNSLKPEDTAVYYCAAAVYERPRDYYYWGQGTQVTVSS”, “low polyreactivity”; under “QVQLVESGGGLVQAGGSLRLSCAASGRTFYGYAMGWYRQAPGKERELVAAISRRGGSTNYADSVKGRFTLSRDNAKNTVYLQMNSLKPEDTAVYYCNVAFRIPYRMDYWGQGTQVTVSS”, “high polyreactivity”. Consider “QVQLVESGGGLVQAGGSLRLSCAASGRTFYGYAMGWYRQAPGKERELVAAISWTGGRTYYADSVKGRFTISRDNAKNTVYLQMNSLKPEDTAVYYCNARRRGDSGDGYIYGYWGQGTQVTVSS”, for which the “polyreactivity (PSR sort gate)” value is “high polyreactivity”.

As for “QVQLVESGGGLVQAGGSLRLSCAASGRTFYGYAMGWYRQAPGKERELVASIDGGGRTYYADSVKGRFTISRDNAKNTVYLQMNSLKPEYNGVYYCAKRSYQYGYPDGYGYWGQGTQVTVSS”, the “polyreactivity (PSR sort gate)” value is “low polyreactivity”. The result for “QVQLVESGGGLVQAGGSLRLSCAASGRTFYGYAMGWYRQAPGKERELVATISWSGGRTNYADSVKGRFTISRDNAKNTVYLQMNSLKPEDTAVYYCAAPYRLSKYDYWGQGTEVTVSS” reads “high polyreactivity”.

For the sequence “QVQLVESGGGLVQAGGSLRLSCAASGRTFYGYAMGWYRQAPGKERELVATITSGGSTKYADSVKGRFTISRDNAKNTVYLQMNSLKPEDTAVYYCAARTGGHRGYDYWGQGTQVTVSS”, the “polyreactivity (PSR sort gate)” value is recorded as “low polyreactivity”. As to “QVQLVESGGGLVQAGGSLRLSCAASGRTFYGYGMGWYRQAPGKERELVAGISGRGTRTYYADSVKGRFTISRDNAKNTVYLQMNSLKPEDTAVYYCNAVSIGYYSQSLGLDYWGQGTQVTVSS”, the “polyreactivity (PSR sort gate)” value is on record as “high polyreactivity”. Take “QVQLVESGGGLVQAGGSLRLSCAASGRTFYGYVMGWYRQAPGKERELVAAISRSVGSTYYADSVKGRFTISRDNAKNTVYLQMNSLKPEDTAVYYCATSVYGGVDYWGQGTQVTVSS”: the “polyreactivity (PSR sort gate)” value was “high polyreactivity”. In the case of “QVQLVESGGGLVQAGGSLRLSCAASGRTFYGYVMGWYRQAPGKERELVAAISSGGNTKYADSVKGRFTISRDNAKNTVYLQMNSLKPEDTAVYYCAAGSSVTPYRYYYWGQGTQVTVSS”, the “polyreactivity (PSR sort gate)” value was “high polyreactivity”. For the sequence “QVQLVESGGGLVQAGGSLRLSCAASGRTFYHNAMGWYRQAPGKERELVAAITSSGGRTYYADSVKGRFTISRDNAKNTVYLQMNSLKPEDTAVYYCNARYLGGQVRYWYYNKYDYWGQGTQVTVSS”, the “polyreactivity (PSR sort gate)” value is “high polyreactivity”. With “QVQLVESGGGLVQAGGSLRLSCAASGRTFYHYAMGWYRQAPGKERELVAGITGRGRSTYYADSVKGRFTISRDNAKNTVYLQMNSLKPEDTAVYYCAAARLYSGAASDYGYWGQGTQVTVSS”, the “polyreactivity (PSR sort gate)” value was “high polyreactivity”. Consider “QVQLVESGGGLVQAGGSLRLSCAASGRTFYHYTMGWYRQAPGKARELVAAITSGGSTYYADSVKGRFTISRDYAKNTVYLQMNSLKPEDTAVYYCARVRPLYHFSRYDDCGQGTQVTVSS”, for which the “polyreactivity (PSR sort gate)” value is given as “high polyreactivity”. On to “QVQLVESGGGLVQAGGSLRLSCAASGRTFYINAMGWSRQAPGKERELVAAITWSGGRTYYADSVKGRFTISRDNAKNTVYLQMNSLKPEDTAVYYCAVGYVYTRKGRVQPVKYDYWGQGTQVTVSS”, for which the “polyreactivity (PSR sort gate)” value is reported as “high polyreactivity”. As to “QVQLVESGGGLVQAGGSLRLSCAASGRTFYINAMGWYRQAPGKERELVATISRSGGDTYYADSVKGRFTISRDNAKNTVYLQMNSLKPEDTAVYYCYARQYYYRSGAYASRYLYNYWGQGTQVTVSS”, the “polyreactivity (PSR sort gate)” value is “high polyreactivity”. For the sequence “QVQLVESGGGLVQAGGSLRLSCAASGRTFYINAMGWYRQAPRKERELVAAITSVGSTNYADSVKGRFTISRDNAKNNVYIQMNSLKPEDTAVYYCAAESTEGTSGDYDYWGQGTQVTVSS”, the “polyreactivity (PSR sort gate)” value is listed as “low polyreactivity”. For the sequence “QVQLVESGGGLVQAGGSLRLSCAASGRTFYIYAMGWYRQAPGKERELVAAINSGGSTYYADSVKGRFTISRDNAKNTVYLQMNSLKPEDTAVYYCAATKGYYFFGDRDYWGQGTQVTVSS”, the “polyreactivity (PSR sort gate)” value is on record as “low polyreactivity”. Regarding “QVQLVESGGGLVQAGGSLRLSCAASGRTFYIYAMGWYRQAPGKERELVAAISWGSGSTYYADSVKGRFTISRDNAKNTVYLQMNSLKPEDTAVYYCAAEYAYPSEWTYDYWRQGTQVTVSS”, the “polyreactivity (PSR sort gate)” value is given as “low polyreactivity”. The result for “QVQLVESGGGLVQAGGSLRLSCAASGRTFYIYAMGWYRQAPGKERELVAAITYGGGRTFYADSVKGRFTISRDYAKTTVYLQMISLKPEDTAVYYCAATDRGKRSTYDYWGQGTQVTVSS” reads “high polyreactivity”; that for “QVQLVESGGGLVQAGGSLRLSCAASGRTFYIYAMGWYRQAPGKERELVASINWSTGRTYYADSVKGRFTISRDNAKNTVYLQMNSLKPEDTAVYYCATDGDYYYISQGRRGYRYNYWGQGTQVTVSS”, “high polyreactivity”; that for “QVQLVESGGGLVQAGGSLRLSCAASGRTFYIYARGWYRKAPGKERELVAAITYGGGRTFYADSVKGRFTISRDNAKYTVYLQMNSLKPEDNAVYYCAATVRGKRSTYDYWGQGTQVTVSS”, “high polyreactivity”.
